The labels stand for the following.
T1: human amylin receptor (human, UniProt P30988 25-474; O60896 24-148, limits assumed)
T1 construct: whole, on cells; Used as cell membranes prepared from the Amylin 3(a)/CRE-luc BHK cells (Assay V); also called hAmylin-R; hAmylinR
T1 sequence (looked up) 1: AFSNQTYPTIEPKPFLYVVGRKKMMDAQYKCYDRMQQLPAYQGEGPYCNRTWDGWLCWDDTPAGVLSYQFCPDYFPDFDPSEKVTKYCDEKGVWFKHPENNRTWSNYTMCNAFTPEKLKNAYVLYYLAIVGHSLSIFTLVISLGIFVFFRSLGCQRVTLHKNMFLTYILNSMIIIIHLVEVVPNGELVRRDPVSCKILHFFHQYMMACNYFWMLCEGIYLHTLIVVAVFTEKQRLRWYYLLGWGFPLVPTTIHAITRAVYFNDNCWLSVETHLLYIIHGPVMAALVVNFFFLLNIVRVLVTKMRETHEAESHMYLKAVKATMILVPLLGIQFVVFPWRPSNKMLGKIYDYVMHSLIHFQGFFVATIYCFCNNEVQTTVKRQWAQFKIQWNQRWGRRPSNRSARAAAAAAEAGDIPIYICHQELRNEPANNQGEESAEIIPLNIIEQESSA
T1 sequence (looked up) 2: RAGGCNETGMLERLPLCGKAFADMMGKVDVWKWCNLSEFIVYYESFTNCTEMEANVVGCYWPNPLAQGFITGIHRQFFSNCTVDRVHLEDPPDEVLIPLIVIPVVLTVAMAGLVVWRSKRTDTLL

T2: human amylin receptor (Amylin 3(a) receptor: human calcitonin receptor co-expressed with RAMP-3) (human, UniProt P30988 25-474; O60896 24-148, limits assumed)
T2 construct: whole, on cells; Used as cell membranes prepared from the Amylin 3(a)/CRE-luc BHK cells (Assay V); the complex is called the human amylin receptor; also called hAmylin-R; hAmylinR
T2 sequence (looked up) 1: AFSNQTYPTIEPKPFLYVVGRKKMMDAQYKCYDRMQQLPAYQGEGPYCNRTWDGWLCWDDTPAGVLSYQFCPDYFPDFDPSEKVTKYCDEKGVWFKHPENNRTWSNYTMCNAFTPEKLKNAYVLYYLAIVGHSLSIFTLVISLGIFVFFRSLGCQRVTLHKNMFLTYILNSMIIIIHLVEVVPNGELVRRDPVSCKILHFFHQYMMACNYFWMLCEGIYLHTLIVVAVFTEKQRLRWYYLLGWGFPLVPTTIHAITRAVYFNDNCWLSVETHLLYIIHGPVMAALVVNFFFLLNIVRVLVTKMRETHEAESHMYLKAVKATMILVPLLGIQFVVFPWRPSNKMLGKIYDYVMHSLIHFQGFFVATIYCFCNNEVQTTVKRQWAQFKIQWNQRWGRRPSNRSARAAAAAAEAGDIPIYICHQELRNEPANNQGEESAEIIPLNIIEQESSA
T2 sequence (looked up) 2: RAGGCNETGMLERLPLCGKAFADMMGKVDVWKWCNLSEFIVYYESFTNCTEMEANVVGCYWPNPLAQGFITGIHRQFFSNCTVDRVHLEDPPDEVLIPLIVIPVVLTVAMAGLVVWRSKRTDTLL

B1: N^α1 N^α1-[(4S)-4-carboxy-4-[[(4S)-4-carboxy-4-(19-carboxynonadecanoylamino)butanoyl]amino]butanoyl]-[Glu14,Arg17,Pro21,Pro27]-h-amylin (peptide)
peptide: {C20 diacid-γGlu-γGlu}-KCNTATCATQRLAEFLRHSSPNFGAIPSSTNVGSNTY-NH2
modifications: disulfide 2-7
SMILES: CC[C@H](C)[C@H](NC(=O)[C@H](C)NC(=O)CNC(=O)[C@H](Cc1ccccc1)NC(=O)[C@H](CC(N)=O)NC(=O)[C@@H]1CCCN1C(=O)[C@H](CO)NC(=O)[C@H](CO)NC(=O)[C@H](Cc1c[nH]cn1)NC(=O)[C@H](CCCNC(=N)N)NC(=O)[C@H](CC(C)C)NC(=O)[C@H](Cc1ccccc1)NC(=O)[C@H](CCC(=O)O)NC(=O)[C@H](C)NC(=O)[C@H](CC(C)C)NC(=O)[C@H](CCCNC(=N)N)NC(=O)[C@H](CCC(N)=O)NC(=O)[C@@H](NC(=O)[C@H](C)NC(=O)[C@@H]1CSSC[C@H](NC(=O)[C@H](CCCCN)NC(=O)CC[C@H](NC(=O)CC[C@H](NC(=O)CCCCCCCCCCCCCCCCCCC(=O)O)C(=O)O)C(=O)O)C(=O)N[C@@H](CC(N)=O)C(=O)N[C@@H]([C@@H](C)O)C(=O)N[C@@H](C)C(=O)N[C@@H]([C@@H](C)O)C(=O)N1)[C@@H](C)O)C(=O)N1CCC[C@H]1C(=O)N[C@@H](CO)C(=O)N[C@@H](CO)C(=O)N[C@H](C(=O)N[C@@H](CC(N)=O)C(=O)N[C@H](C(=O)NCC(=O)N[C@@H](CO)C(=O)N[C@@H](CC(N)=O)C(=O)N[C@H](C(=O)N[C@@H](Cc1ccc(O)cc1)C(N)=O)[C@@H](C)O)C(C)C)[C@@H](C)O
notes: also called compound 15
B2: N^α1-[(4S)-4-carboxy-4-(19-carboxynonadecanoylamino)butanoyl]-[Arg17,Pro21,Pro27,Glu35]-h-amylin (peptide)
peptide: KCNTATCATQRLANFLRHSSPNFGAIPSSTNVGSETY
modifications: C20 diacid-gGlu on alpha amino group of the N-terminal residue; Cys2-Cys7 disulfide and C-terminal amide as in h-amylin
notes: also called compound 23
B3: N^α1-[(4S)-4-carboxy-4-(19-carboxynonadecanoylamino)butanoyl]-[Arg17,Pro21,Pro27,Pro31,Glu35]-h-amylin (peptide)
peptide: {C20 diacid-γGlu}-KCNTATCATQRLANFLRHSSPNFGAIPSSTPVGSETY-NH2
modifications: disulfide 2-7
SMILES: CC[C@H](C)[C@H](NC(=O)[C@H](C)NC(=O)CNC(=O)[C@H](Cc1ccccc1)NC(=O)[C@H](CC(N)=O)NC(=O)[C@@H]1CCCN1C(=O)[C@H](CO)NC(=O)[C@H](CO)NC(=O)[C@H](Cc1c[nH]cn1)NC(=O)[C@H](CCCNC(=N)N)NC(=O)[C@H](CC(C)C)NC(=O)[C@H](Cc1ccccc1)NC(=O)[C@H](CC(N)=O)NC(=O)[C@H](C)NC(=O)[C@H](CC(C)C)NC(=O)[C@H](CCCNC(=N)N)NC(=O)[C@H](CCC(N)=O)NC(=O)[C@@H](NC(=O)[C@H](C)NC(=O)[C@@H]1CSSC[C@H](NC(=O)[C@H](CCCCN)NC(=O)CC[C@H](NC(=O)CCCCCCCCCCCCCCCCCCC(=O)O)C(=O)O)C(=O)N[C@@H](CC(N)=O)C(=O)N[C@@H]([C@@H](C)O)C(=O)N[C@@H](C)C(=O)N[C@@H]([C@@H](C)O)C(=O)N1)[C@@H](C)O)C(=O)N1CCC[C@H]1C(=O)N[C@@H](CO)C(=O)N[C@@H](CO)C(=O)N[C@H](C(=O)N1CCC[C@H]1C(=O)N[C@H](C(=O)NCC(=O)N[C@@H](CO)C(=O)N[C@@H](CCC(=O)O)C(=O)N[C@H](C(=O)N[C@@H](Cc1ccc(O)cc1)C(N)=O)[C@@H](C)O)C(C)C)[C@@H](C)O
notes: also called compound 28
B4: N^α1-[(4S)-4-carboxy-4-(19-carboxynonadecanoylamino)butanoyl]-[Glu14,Arg17,Pro21,Pro27,Arg35]-h-amylin (peptide)
peptide: {C20 diacid-γGlu}-KCNTATCATQRLAEFLRHSSPNFGAIPSSTNVGSRTY-NH2
modifications: disulfide 2-7
SMILES: CC[C@H](C)[C@H](NC(=O)[C@H](C)NC(=O)CNC(=O)[C@H](Cc1ccccc1)NC(=O)[C@H](CC(N)=O)NC(=O)[C@@H]1CCCN1C(=O)[C@H](CO)NC(=O)[C@H](CO)NC(=O)[C@H](Cc1c[nH]cn1)NC(=O)[C@H](CCCNC(=N)N)NC(=O)[C@H](CC(C)C)NC(=O)[C@H](Cc1ccccc1)NC(=O)[C@H](CCC(=O)O)NC(=O)[C@H](C)NC(=O)[C@H](CC(C)C)NC(=O)[C@H](CCCNC(=N)N)NC(=O)[C@H](CCC(N)=O)NC(=O)[C@@H](NC(=O)[C@H](C)NC(=O)[C@@H]1CSSC[C@H](NC(=O)[C@H](CCCCN)NC(=O)CC[C@H](NC(=O)CCCCCCCCCCCCCCCCCCC(=O)O)C(=O)O)C(=O)N[C@@H](CC(N)=O)C(=O)N[C@@H]([C@@H](C)O)C(=O)N[C@@H](C)C(=O)N[C@@H]([C@@H](C)O)C(=O)N1)[C@@H](C)O)C(=O)N1CCC[C@H]1C(=O)N[C@@H](CO)C(=O)N[C@@H](CO)C(=O)N[C@H](C(=O)N[C@@H](CC(N)=O)C(=O)N[C@H](C(=O)NCC(=O)N[C@@H](CO)C(=O)N[C@@H](CCCNC(=N)N)C(=O)N[C@H](C(=O)N[C@@H](Cc1ccc(O)cc1)C(N)=O)[C@@H](C)O)C(C)C)[C@@H](C)O
notes: also called compound 16
B5: N^α1-[2-[2-[2-[[2-[2-[2-[[(4S)-4-carboxy-4-(19-carboxynonadecanoylamino)butanoyl]amino]ethoxy]ethoxy]acetyl]amino]ethoxy]ethoxy]acetyl]-[Glu14,Arg17,Pro21,Pro27 … (peptide)
peptide: KCNTATCATQRLAEFLRHSSPNFGAIPSSTNVGSNTY
modifications: C20 diacid-gGlu-2xOEG on alpha amino group of the N-terminal residue; Cys2-Cys7 disulfide and C-terminal amide as in h-amylin
notes: also called compound 19
B6: N^α1-[(4S)-4-carboxy-4-(19-carboxynonadecanoylamino)butanoyl]-[Arg17,Pro21,Pro27,Arg34]-h-amylin (peptide)
peptide: KCNTATCATQRLANFLRHSSPNFGAIPSSTNVGRNTY
modifications: C20 diacid-gGlu on alpha amino group of the N-terminal residue; Cys2-Cys7 disulfide and C-terminal amide as in h-amylin
notes: also called compound 39
B7: N^α1-[(4S)-4-carboxy-4-(19-carboxynonadecanoylamino)butanoyl]-[Arg17,Pro21,Pro27,His34]-h-amylin (peptide)
peptide: KCNTATCATQRLANFLRHSSPNFGAIPSSTNVGHNTY
modifications: C20 diacid-gGlu on alpha amino group of the N-terminal residue; Cys2-Cys7 disulfide and C-terminal amide as in h-amylin
notes: also called compound 40
B8: N^ε1-[(4S)-4-carboxy-4-(19-carboxynonadecanoylamino)butanoyl]-[Glu14,Arg17,Pro21,Pro27,Pro34,Glu35]-h-amylin (peptide)
peptide: K([γGlu-C20 diacid])CNTATCATQRLAEFLRHSSPNFGAIPSSTNVGPETY-NH2
modifications: disulfide 2-7; N-terminus assumed
SMILES: CC[C@H](C)[C@H](NC(=O)[C@H](C)NC(=O)CNC(=O)[C@H](Cc1ccccc1)NC(=O)[C@H](CC(N)=O)NC(=O)[C@@H]1CCCN1C(=O)[C@H](CO)NC(=O)[C@H](CO)NC(=O)[C@H](Cc1c[nH]cn1)NC(=O)[C@H](CCCNC(=N)N)NC(=O)[C@H](CC(C)C)NC(=O)[C@H](Cc1ccccc1)NC(=O)[C@H](CCC(=O)O)NC(=O)[C@H](C)NC(=O)[C@H](CC(C)C)NC(=O)[C@H](CCCNC(=N)N)NC(=O)[C@H](CCC(N)=O)NC(=O)[C@@H](NC(=O)[C@H](C)NC(=O)[C@@H]1CSSC[C@H](NC(=O)[C@@H](N)CCCCNC(=O)CC[C@H](NC(=O)CCCCCCCCCCCCCCCCCCC(=O)O)C(=O)O)C(=O)N[C@@H](CC(N)=O)C(=O)N[C@@H]([C@@H](C)O)C(=O)N[C@@H](C)C(=O)N[C@@H]([C@@H](C)O)C(=O)N1)[C@@H](C)O)C(=O)N1CCC[C@H]1C(=O)N[C@@H](CO)C(=O)N[C@@H](CO)C(=O)N[C@H](C(=O)N[C@@H](CC(N)=O)C(=O)N[C@H](C(=O)NCC(=O)N1CCC[C@H]1C(=O)N[C@@H](CCC(=O)O)C(=O)N[C@H](C(=O)N[C@@H](Cc1ccc(O)cc1)C(N)=O)[C@@H](C)O)C(C)C)[C@@H](C)O
notes: modifications are with respect to human amylin

We go through 8 molecules from patent US20140087995A1 (published 2014).

Numbered stars: 1 amine (or outer) side, 2 acyl side, 3 side chain; on linkers, the order of the positions; unused ones are H or OH. Bridge positions count the residues as written; N and C are the ends. Side chains are listed from the residue outwards. Ends that are not written are not given here. * marks the point of attachment. C20 diacid = O=C(O)CCCCCCCCCCCCCCCCCCC(=O)*; γGlu = O=C(O)[C@H](CCC(=O)[*:2])N[*:1]

The first assay addresses T1, human amylin receptor. The assay is described as follows: SPA competition vs 125I-rat amylin, membranes of amylin 3(a) receptor BHK cells (Assay V). As for the experimental part: The binding assay was performed using scintillation proximity assay (SPA) beads (RPNQ0001) from PerkinElmer and cell membranes from the Amylin 3(a)/CRE-luc cells (as described in Assay (II)) were used. Membranes were prepared in the following way; the cells were rinsed with PBS and incubated with Versene for approximately 5 min before harvesting. The cells were flushed with PBS and the cell-suspension was centrifuged for 5 min at 1000 rpm. Cells were homogenized (ultrathurrax) in a buffer containing 20 mM Na-HEPES and 10 mM EDTA (pH 7.4) and centrifuged at 20.000 rpm for 15 min. The resulting pellet was resuspended, homogenized and centrifuged (20.000 rpm, 15 min) in a buffer containing 20 mM Na-HEPES and 0.1 mM EDTA (pH 7.4, buffer 2). The resulting pellet was resuspended in buffer 2 and protein concentration was measured (BCA protein Assay, Pierce). The homogenate was kept cold during the whole procedure. The membranes were kept at −80° C. until use. The assay was performed in a 384 well Optiplate (PerkinElmer) in a total volume of 40 ul. Membranes were mixed with SPA beads. Final concentration of membranes 35 ng/μL final and SPA beads was 0.05 mg/well. Test-compounds were dissolved in DMSO and further diluted in assay buffer (50 mM Hepes, pH 7.4, 1 mM CaCl2, 5 mM MgCl₂, 0.1% OA and 0.02% Tween20). […] The final mixture was incubated with shaking at 400 rpm for 120 min at 25° C. prior to centrifugation (1500 rpm, 10 min). Samples were analyzed on TopCounter™ (Packard). The IC₅₀ was calculated using (one site binding competition analysis) GraphPad Prism5 as a measure of receptor affinity.
The molecule B1 displayed an IC50 of 0.597 nM. The same measure, in the same setting: then B2, with 0.871 nM; and B3, with 0.61 nM; and B4, with 0.894 nM. Same read-out and setting: then B5, with 0.556 nM; and B6, with 0.665 nM; and B7, with 0.549 nM.

The target in another assay is T2, human amylin receptor (Amylin 3(a) …). Kind of assay: SPA competition binding, displacement of 125I-rat amylin from membranes of BHK cells with human calcitonin receptor + RAMP-3 (Assay V). An outline of the steps: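 Membranes from BHK Amylin 3(a)/CRE-luc cells (35 ng/μL final) were mixed with SPA beads and test compounds in 50 mM Hepes pH 7.4 with 1 mM CaCl2, 5 mM MgCl₂, 0.1% OA and 0.02% Tween20. Incubation ran 120 min at 25° C with shaking; IC₅₀ came from one-site competition fitting.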
(In a radioligand displacement assay an active substance lowers the binding of a labelled ligand.)
As to B8, the IC50 is 0.14 nM.

The IC50 is the point on the concentration scale where inhibition reaches its midpoint.
